Here are results for one protein from patent US20110008376.

The target of data set [1] is T1, dOVA-2 (misfolded ovalbumin comprising crossbeta, cyclic heating 30-85 C), P01012.
T1 chain: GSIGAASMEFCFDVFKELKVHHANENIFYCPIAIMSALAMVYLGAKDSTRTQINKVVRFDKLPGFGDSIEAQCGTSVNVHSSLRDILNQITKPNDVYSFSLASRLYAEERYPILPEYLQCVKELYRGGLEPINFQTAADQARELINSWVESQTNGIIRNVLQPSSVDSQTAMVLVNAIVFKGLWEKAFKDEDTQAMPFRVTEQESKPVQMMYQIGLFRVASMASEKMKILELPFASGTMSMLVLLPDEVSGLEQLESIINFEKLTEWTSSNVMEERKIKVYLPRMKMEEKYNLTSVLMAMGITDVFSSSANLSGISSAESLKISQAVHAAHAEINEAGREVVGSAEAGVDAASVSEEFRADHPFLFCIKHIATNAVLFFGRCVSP

The target in data set [2] is cH5-1 (misfolded H5 of A/VN/1203/04, heat cycling).
In data set [3] the target is T2, dOVA-3 (misfolded ovalbumin comprising crossbeta, about 16 h at 75 C), P01012.
T2 chain: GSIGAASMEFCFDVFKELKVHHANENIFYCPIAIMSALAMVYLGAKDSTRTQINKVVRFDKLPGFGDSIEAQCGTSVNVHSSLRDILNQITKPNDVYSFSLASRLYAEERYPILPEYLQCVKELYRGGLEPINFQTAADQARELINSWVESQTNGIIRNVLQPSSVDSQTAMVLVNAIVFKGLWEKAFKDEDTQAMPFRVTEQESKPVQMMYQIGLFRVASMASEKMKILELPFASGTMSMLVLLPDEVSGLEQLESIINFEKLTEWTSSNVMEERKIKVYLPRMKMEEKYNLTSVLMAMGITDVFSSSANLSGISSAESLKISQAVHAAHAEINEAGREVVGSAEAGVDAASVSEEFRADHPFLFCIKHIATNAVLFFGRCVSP

The target of data set [4] is cH5-3 (misfolded H5 of A/VN/1203/04, heat cycling at pH 12).
Data set [5] addresses T3, nOVA (untreated ovalbumin, 1 mg/ml in PBS), P01012.
T3 chain: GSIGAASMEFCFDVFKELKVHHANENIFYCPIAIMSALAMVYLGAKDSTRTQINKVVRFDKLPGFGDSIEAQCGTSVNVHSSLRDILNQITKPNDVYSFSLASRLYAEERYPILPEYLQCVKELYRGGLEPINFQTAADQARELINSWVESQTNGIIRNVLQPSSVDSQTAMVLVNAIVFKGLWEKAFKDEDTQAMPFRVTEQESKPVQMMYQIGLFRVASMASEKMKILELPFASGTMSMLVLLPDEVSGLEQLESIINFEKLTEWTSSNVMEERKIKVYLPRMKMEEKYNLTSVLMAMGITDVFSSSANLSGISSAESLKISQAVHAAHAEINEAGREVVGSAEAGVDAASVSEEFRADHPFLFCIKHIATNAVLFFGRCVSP

Data set [6] concerns the target nH5 (non-treated H5 of H5N1 strain A/Vietnam/1203/04, first example).
Data set [7] concerns the target cH5-4 (glycated H5 of A/VN/1203/04).
The target in data set [8] is cH5-2 (misfolded H5 of A/VN/1203/04, heat cycling at pH 2).
Data set [9] deals with T4, dOVA-1 (misfolded ovalbumin comprising crossbeta, acid treated), P01012.
T4 chain: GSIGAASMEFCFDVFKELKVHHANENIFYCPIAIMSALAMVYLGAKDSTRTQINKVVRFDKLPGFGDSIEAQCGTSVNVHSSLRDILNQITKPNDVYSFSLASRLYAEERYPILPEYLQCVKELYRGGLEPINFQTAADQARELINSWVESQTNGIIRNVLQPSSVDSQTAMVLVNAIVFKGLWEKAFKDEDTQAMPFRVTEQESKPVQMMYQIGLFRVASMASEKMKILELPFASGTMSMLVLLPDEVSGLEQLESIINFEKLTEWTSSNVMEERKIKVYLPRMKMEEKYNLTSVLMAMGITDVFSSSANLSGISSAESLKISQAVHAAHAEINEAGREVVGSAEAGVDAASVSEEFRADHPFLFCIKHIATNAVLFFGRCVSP

B1: tissue type plasminogen activator (tPA) (protein)
chain: SYQVICRDEKTQMIYQQHQSWLRPVLRSNRVEYCWCNSGRAQCHSVPVKSCSEPRCFNGGTCQQALYFSDFVCQCPEGFAGKCCEIDTRATCYEDQGISYRGTWSTAESGAECTNWNSSALAQKPYSGRRPDAIRLGLGNHNYCRNPDRDSKPWCYVFKAGKYSSEFCSTPACSEGNSDCYFGNGSAYRGTHSLTESGASCLPWNSMILIGKVYTAQNPSAQALGLGKHNYCRNPDGDAKPWCHVLKNRRLTWEYCDVPSCSTCGLRQYSQPQFRIKGGLFADIASHPWQAAIFAKHRRSPGERFLCGGILISSCWILSAAHCFQERFPPHHLTVILGRTYRVVPGEEEQKFEVEKYIVHKEFDDDTYDNDIALLQLKSDSSRCAQESSVVRTVCLPPADLQLPDWTECELSGYGKHEALSPFYSERLKEAHVRLYPSSRCTSQHLLNRTVTDNMLCAGDTRSGGPQANLHDACQGDSGGPLVCLNDGRMTLVGIISWGLGCGQKDVPGVYTKVTNYLDWIRDNMRP
For the protein B1, the tPA activation potency, Activation at 10 µg/mL in data set [1] came out at 107%; in data set [3], 60.9%; in [5] it was 48.8%; in data set [9] it was 97.4%. The tPA activation potency, Activation at 25 µg/mL is 107% in data set [1], 79% in data set [3], 48.1% in [5] and 136% in data set [9]. In addition, the tPA-mediated plasminogen activation (plasmin chromogenic substrate), reference dOVA-2 at 80 µg/mL in [1] was determined as 100%. In addition, the “tPA/Plg activating potential, crossbeta ovalbumin standard at 10 µg/ml” value in data set [1] was “at 10 and 50 µg/ml, tPA/plg activation is 100% and 85%, respectively”. Further, in data set [1], the “tPA/Plg activating potential, crossbeta ovalbumin standard at 30 µg/ml” value is reported as “The activating potential of crossbeta ovalbumin standard at 30 µg/ml is set to 100%”. In data set [1], the “tPA/Plg activating potential, crossbeta ovalbumin standard at 50 µg/ml” value is “at 10 and 50 µg/ml, tPA/plg activation is 100% and 85%, respectively”. For the same protein, the “tPA mediated plasminogen activation assay” value was “cH5-1 (50% of standard)” in [2]; “cH5-3 (200% of standard)” in [4]; “nH5 (140% of standard)” in data set [6]; “cH5-4 (37% of standard)” in data set [7]; “cH5-2 (150% of standard)” in [8].
